Entries after “also recorded” stand apart in the source; their conditions may differ.
Legend:
EphB4 [1] = assay: EphB4 expression in HNSCC cell lines on EGFR inhibition (Western blot); type: cell-based, human
Protocol: Western blot of total cell lysates sequentially probed with EphB4 monoclonal antibody, stripped and reprobed with β-actin monoclonal antibody as described for FIG. 39C. B) Effect of the specific EGFR inhibitor AG1478 on EphB4 expression: Western blot of crude cell lysates of SCC15 treated with 0-1000 nM AG 1478 for 24 h in media supplemented with 10% FCS (left) or with […] AG 1478 for 4, 8, 12 or 24 h (right). Shown are membranes sequentially probed for EphB4 and β-actin. C) Effect of inhibition of EGFR signaling on EphB4 expression in SCC cell lines: Cells maintained in growth media containing 10% FCS were treated for 24 hr with 1 μM AG 1478, after which crude cell lysates were analyzed by Western blots of cell lysates sequentially probed with for EGFR, EphB4, ephrin B2 and β-actin antibodies. Specific signal for EGFR was detected at 170 kD and ephrin B2 at 37 kD in addition to EphB4 and β-actin as described in FIG. 1C. β-actin serves as loading and transfer control.

EphB4 [2] = assay: EphB4 expression in PC3 cells on EGFR / IGF-1R blockade (Western blot); type: cell-based, human; conditions: AG1478 1 nM 36 hours, MAB391 2 μg/ml overnight
Protocol: A) Western blot of PC3 cells treated with or without EGFR specific inhibitor AG1478 (1 nM) for 36 hours. […] The membrane was stripped and reprobed with β-actin, which was unaffected. B) Western Blot of triplicate samples of PC3 cells treated with or without IGFR-1 specific neutralizing antibody MAB391 (2 μg/ml; overnight). The membrane was sequentially probed with EphB4, IGFR-1 and β-actin antibodies.

EphrinB2 = molecular target: T1, EphrinB2 (Homo sapiens, UniProt P52799); assay: EphrinB2 (B2-AP) binding assay on affinity magnetic beads
T1 construct: protein fusion of Ephrin B2 ectodomain with placental alkaline phosphatase
Excerpt: To test whether the B4-HSA fusion property retained the ability of the EphB4 extracellular domain to bind to EphrinB2, the ability of the purified B4-HSA fusion was compared to that of GCF2F, GCF2, GC, CF and B4-Fc fusion, which comprises the extracellular domain of B4 fused to hIgG1 Fc as described in Example 1. Biotinylated or His-tag protein samples were inoculated with the corresponding affinity magnetic beads and B2-AP for an hour at room temperature, before addition of PnPP. Results of binding assays are shown on FIG. 67.
Fractions 1, 2 and 3 of biotinylated and PEGylated sB4 from the SP column purification, corresponding to polypegylated, monopegylated and unpegylated biotinylated sB4, were tested for their ability to bind EphrinB2 using the standard assay. Results of this experiment are shown on FIG. 72.

[3] = In vivo stability in mice after intravenous injection; design: species or system mouse; conditions: for stability in vivo relative to sB4 / EphB4 ectodomain: mice
Protocol: The stability of the purified biotinylated sB4 and sB4-HSA were assayed in vivo. Each of the proteins were intravenously injected into the tail of mice in the amount of 0.5 nmoles per mouse. Blood from the eye of each mouse was taken in time frames of 15 min (0 days), 1, 2, 3 and 6 days. […] of obtained serum was used in binding assay with Ephrin-B2-Alkaline Phosphatase fusion protein and Streptavidin-coated magnetic beads as a solid phase. […] For example, one day after injection, the levels of sB4-HSA in the blood of the mice were 5-fold greater than those of sB4.
Fractions 1, 2 and 3 of biotinylated and PEGylated sB4 from the SP column purification, corresponding to polypegylated, monopegylated and unpegylated biotinylated sB4, were introduced by intravenous injection into mice in the amount of 0.5 nMoles/mouse. Blood from each mouse was taken in time frame of 10 min, 1, 2 and 3 days. […] of obtained serum was used in binding assay with Ephrin-B2-Alkaline Phosphatase fusion protein and Streptavidin-coated magnetic beads as a solid phase. Signals, obtained at 10 min were taken as 100%. The two mice for each protein were of a different strain.

T1 sequence (P52799 28-229 limits assumed): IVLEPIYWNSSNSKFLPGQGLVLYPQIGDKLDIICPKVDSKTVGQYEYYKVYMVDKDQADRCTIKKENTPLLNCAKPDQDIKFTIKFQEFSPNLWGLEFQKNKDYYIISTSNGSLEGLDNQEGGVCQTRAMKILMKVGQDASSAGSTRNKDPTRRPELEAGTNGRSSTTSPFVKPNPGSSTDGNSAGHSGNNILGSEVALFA

| Molecule | total amount of EphB4 (EphB4 [1]; SCC-9, -12, -13 and -71) | total amount of EphB4 (EphB4 [1]; SCC-15 and SCC-25, 24 h, 1 µM) | EphB4 level (EphB4 [2]) | binding activity towards EphrinB2 (EphrinB2) | binding to EphrinB2 compared with the B4-Fc fusion (EphrinB2) | stability in vivo relative to sB4 / EphB4 ectodomain [3] | levels in the blood relative to sB4 ([3]; one day after injection, i.v. 0.5 nmoles per mouse) |
| --- | --- | --- | --- | --- | --- | --- | --- |
| COc1cc2ncnc(Nc3cccc(Cl)c3)c2cc1OC [AG1478] | no effect | marked loss | down-regulated; also recorded: Decreased EphB4 signal | – | – | – | – |
| B4-HSA: EphB4 ectodomain fused to human serum albumin, mature form SEQ ID NO:19 | – | – | – | retain most of its binding activity | superior | superior stability | 5 fold |
| EphB4 ectodomain fusion to the C-terminus of HSA: EphB4 ectodomain fused to the C-terminus of HSA | – | – | – | retain the ability to bind | – | enhanced stability | – |

Source: patent US9533026B2, “Polypeptide compounds for inhibiting angiogenesis and tumor growth” (VasGene Therapeutics, Inc., priority 2004, dated 2017)
